Experimental data as given in the nanobody polyreactivity screen of Harvey et al. (2022).

Experiment: yeast display, Sf9 membrane polyspecificity reagent, FACS + sequencing; frameworks hold sequencing errors
Summary of the method: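 Galactose-induced (36–48 hours) yeast carrying a synthetic nanobody display library were exposed to 10% biotinylated, detergent-solubilized Sf9 membrane reagent at 4 °C for 1 hour. FACS followed streptavidin microbead enrichment, using low and high (top ~1%) gates for expression (anti-HA) and reagent binding (streptavidin). Colony PCR, MiSeq 2 × 250 sequencing and CDR-length filtering followed. Labels for polyreactivity reflect the gate of origin.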

Row | Sequence | polyreactivity (PSR sort gate)
1 | QVQLEESGGGLVQAGGSLRLTCAASGRTFLGNAMGSYRQAPGKEREFVAVISHSGGGTSYADSVKGRFTISRDNAKNTVYLQMNSLKAEETAVYYCAAYSVSSTTWYYYDEYGYWGQGTQVTVSS | low polyreactivity
2 | QVQLVESGGGLVQAGGSLRLSCAASGRTFIVYAMGWYRQAPGKERELVAAITTSLGRTYYADSVKGRFTISRDNAKNTVYLQMNSLKPEDTAVYYCAADRLDGYSEYYYWGQGTQVTVSS | low polyreactivity
3 | KVQVVESGGGFVQAGGSLGLSCAASGRIFGVYAMGWYTQAPGKERELVAAINYSGTRTYYADSVKGRFTISRDNGKNTVYLQMNSLKPEDSAVYYCGARRGSYSVTEYWGQGTQVNVSS | high polyreactivity
4 | QVQLVESCGGLVQAGGSLRLSCAASGRTFYKAMGWYRQAPGKERELVAASTTGGGTKYADSVKGRFTISRDNAQNTVYLQMNSLKPEDTAVYYCNTDEWYHFYHGAHKYDYWGQGTQVTVSS | low polyreactivity
5 | QVQLVESGGGLVQAGGRLRLSCAASGSTIPPSAMGWYRQSPGKERELVAAITSGGSTYYADSVKGRLTISRDNAKNTVYIQLNSLKPEDTAVYYCNADQQTIRSAKNDYWGQGTQVTVSS | low polyreactivity
6 | QVQLVESGGGLVQAGGSLRISCAAYGTIFSDYAMGWYKQAPGKERELVAAISSGGNTNYADSVKGRFTISRDNAKNTVYLQMNSLKPEDTAVYYCAAVYNTTYTLLPEYSDVKYYYWGQGTQVTVSS | low polyreactivity
7 | QVQLVESGGGLVQAGGSLRLSCAASGSILNSYAMGWYRQAPGKERELVATITSGSRTNYADSVKGRFTISRDNAKNTVYLQMNSLKPEDTAVYYCATEYQRRHYIGHNYWGQGTQVTVSS | low polyreactivity
8 | QVQLVESGGGLVQAGGSLRLSCAASGSTFTNNGMGWYRQAPGKERELVATISWDGDSTYYADSVKGRFTISRDNAKNTVYLQMNSLKPEDTAVYYCAADEWGSDSALNFEYWGQGTQVTVSS | low polyreactivity
9 | QVQLVESGGGLVQEGGSLRLSCAASGIIFLENAMGWYRQAPGKERELVAGISSGGNTNYADSVKARFTISRDNAKNTVYLHMNSLKPEDTAVYYCNARCHRAVPGDELGYWGQGTQLTVSS | low polyreactivity
10 | QVQIVESGGGLVQAGGSLRLSCAASGSIFTYNAMGWYRQAPGKERELVAAISYSGVRTYYADSVKGRFTISRDNAKNTVYLQMNSLKPEDTAVYYCNTRYPYSVLKYGYWGQGTQVTVSS | high polyreactivity
11 | QVQLVESGGGLVQAGGSLRLSCAASGSIFNYYAMGWYRQAPGKERELVAAITTSGGNTYYADSVKGRFTISRDNAKNTVYLQMNSLKPEDTAVYYCNTVYAGAAWYQYGYWGQGTQVTVSS | low polyreactivity
12 | QVPLVESGGGLVQAGGSLRLSCAASGLTFRDNAMGCSRQAPGKERELVAALSTNGGSTYYADSVTGRFTISRDNAKNTVYLQLNSLKPEDTALYVCAKSFLPQYPQVDSDYWGQGTQVTVSS | low polyreactivity
13 | QVQLVESGGGLVQAGGSLRLSCAASGFTFNRYAMGWYRQAPGKERELVATITSGGNTYYADSVKGRFTISRDNAKNTVYLQMNSLKPEDTAVYYCNKRGWYSVYRRDYWGQGTQVTVSS | high polyreactivity
14 | QVQLVESGGGLVQAGGSLRLSCAASGRIFGPNAMGWYRQAPGKERELVAAITGSGGSTYADSVKGRFTISRDNAKNTVYLQMNSLKREDTAVYYCAKKTWYSYYWGQGTQVTVSS | high polyreactivity
15 | QVQLVESGGGLVQAGGSLRLSCAASGNTFKYYAMGWYRQAPGKERELVAAISYSGGSTYYADSVKGRFTISRDNAKNTVYFQMNSLKPEDTAVYYCAADLDSERYFLGQGTQVTVSS | low polyreactivity
16 | QVQLVESGGGLVQAGGSLRLSCAASGLTFLYNAMGWYRRATGKERELVASITNGGSTNYADSVKGRFTISRDNEKNTVYLQMNSLKPEDTAVYYCAKAAVDVGQRTPWEYDYWGQGTQVTVSS | low polyreactivity
17 | QVQLVESGGGLVQAGGSLRLSCAASGSIFGFYAMGWYRQAPGKERELVASITISGGSTYYADSVKGRFTISRDNAKNTVYLQMNSLKPEDTAVYYCAARRYWDYNYWGQGTQVTVSS | low polyreactivity
